Residue numbers refer to the chain shown, from its start.
T1: mouse Siglec15-his protein (mouse)
T1 construct: In house made
T1 chain: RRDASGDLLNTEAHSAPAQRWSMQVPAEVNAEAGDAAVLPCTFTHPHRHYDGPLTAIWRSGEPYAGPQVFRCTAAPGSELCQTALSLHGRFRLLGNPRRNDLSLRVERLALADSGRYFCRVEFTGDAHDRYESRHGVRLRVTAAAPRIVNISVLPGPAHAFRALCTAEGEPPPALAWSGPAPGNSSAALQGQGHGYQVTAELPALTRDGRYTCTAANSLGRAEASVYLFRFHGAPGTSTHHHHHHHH

T2: recombinant human Siglec15-his protein (human, UniProt Q6ZMC9 20-263)
T2 construct: In house made; Biotin-labeled in the capture ELISA
T2 sequence: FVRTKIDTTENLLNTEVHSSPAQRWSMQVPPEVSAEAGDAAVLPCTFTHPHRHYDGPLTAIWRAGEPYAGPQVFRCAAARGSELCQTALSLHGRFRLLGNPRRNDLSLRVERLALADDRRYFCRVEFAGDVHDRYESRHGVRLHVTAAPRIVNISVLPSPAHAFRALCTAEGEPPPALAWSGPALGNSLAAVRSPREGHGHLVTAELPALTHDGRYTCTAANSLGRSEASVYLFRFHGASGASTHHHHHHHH

T3: cynomolgus monkey Siglec15-his protein (cynomolgus monkey)
T3 construct: In house made; also called Cynomolgus Siglec15-his; cynomolgus Siglec15
T3 chain: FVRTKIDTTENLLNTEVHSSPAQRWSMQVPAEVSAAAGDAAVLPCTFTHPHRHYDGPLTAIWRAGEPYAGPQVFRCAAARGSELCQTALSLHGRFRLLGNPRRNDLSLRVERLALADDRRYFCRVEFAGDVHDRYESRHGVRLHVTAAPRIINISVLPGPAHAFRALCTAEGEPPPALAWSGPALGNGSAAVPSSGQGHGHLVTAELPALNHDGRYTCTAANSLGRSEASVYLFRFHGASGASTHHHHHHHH

B1: anti-Siglec15 benchmark (ch5G12) (antibody, human IgG1, kappa, V domains shown)
VH: QVQLQQPGAELVKPGASVKMSCKASGYTFTSYWITWVIQRPGQGLEWIGDIYCGSDTMHYNEKFKNKATLTVDTSSSTAYMQLSSLTSEDSAVYYCARWWDYGSSYDYFDYWGQGTTLTVSS
VL: DIKMTQSPSSMYASLGERVTITCKASQDINSYLSWFQQKPGKSPKTLIYRANRLVDGVPSRFSGSGSGQDYSLTISSLEYEDMGIYYCLQYDEFPYTFGGGTKLEIKR
notes: ch5G12 (US 20190202912A1); also called BM; Siglec15-ch5G9
B2: A2A5C7E8 (antibody, V domains shown)
VH: EVQLVQSGAEVKKPGESLRISCKGSGYSFTTYWISWVRQMPGKGLEWMGLIDPSDSYTNYSPSFQGHVTISTDKSISTAYLQWSSLKASDTAMYYCARGGYYGSEEDYWGQGTLVTVSS
VL: EIVLTQSPGTLSLSPGERATLSCRASQSVSSSRLAWFQQKSGQAPRLLIFDASSRATGIPDRFSGSGSGTDFTLTISRLEPEDFAVYYCQQYGSSPRTFGQGTKVEFK
notes: Fully human antibody from transgenic mouse hybridoma; also called A2A5C7E8-1
B3: A2A5C7E8-2 (antibody, human IgG1, kappa, V domains shown)
VH: B2 VH with D55E
VL: EIVLTQSPGTLSLSPGERATLSCRASQSVSSSRLAWFQQKSGQAPRLLIFDASSRATGIPDRFSGSGSGTDFTLTISRLEPEDFAVYYCQQYGSSPRTFGQGTKVEFKR
notes: Variant of A2A5C7E8 modified in VH CDR2 (X1 = E)
B4: A2A5C7E8-3 (antibody, human IgG1, kappa, V domains shown)
VH: B2 VH with Q65K
VL: B3 VL
notes: Variant of A2A5C7E8 modified in VH CDR2 (X2 = K)
B5: B2D7H7A3C1 (antibody, V domains shown)
VH: QVQLQQSGAELVRPGTSVQMSCKAAGYTFTNYWIGWVKQRPGHGLEWVGDIHPGINYTNNNEKFRGKATLTADTSSNTAYMQLRGLTSDDSAIYYCARVDYDYDGSYIMDYWGQGTSVTVSS
VL: QIVLSQSPALLSASPGEKVTMTCRASSSVSYMYWYQQKPGSSPKPWIYATSNLTSGVPARFSGSGSGTSYSLTISRVEAEDAATYFCQQWNSKPWTFGGGSKLEIR
notes: Mouse monoclonal antibody from hybridoma; also called mouse B2D7H7A3C1
B6: B2G12H3E8 (antibody, V domains shown)
VH: B5 VH with Q5K, A25V, N77S
VL: B5 VL
notes: Mouse monoclonal antibody from hybridoma; also called mouse B2G12H3E8
B7: B2H2H1H7 (antibody, V domains shown)
VH: B5 VH with N77S
VL: B5 VL with V3I, K102R
notes: Mouse monoclonal antibody from hybridoma; also called mouse B2H2H1H7; B2H2H1A7

Molecular target: T1, mouse Siglec15-his protein
Assay: SPR Biacore T200, antibody captured by anti-human IgG, antigen as analyte, 1:1 fit
Experimental: (§1) Briefly, goat anti-human IgG (GE healthcare, Cat #BR100839, Human Antibody Capture Kit) was covalently linked to a CM5 chip (carboxy methyl dextran coated chip, GE healthcare, Cat #BR-1005-30) via primary amines, using a standard amine coupling kit provided by Biacore (GE healthcare, Pittsburgh, Pa., USA). Un-reacted moieties on the biosensor surface were blocked with ethanolamine. Then, purified anti-Siglec15 antibodies of the disclosure at the concentration of 13.3 nM and an anti-Siglec15 benchmark (ch5G12, also referred to as BM, see U.S. Patent Publication No. 20190202912A1, amino acid sequences of the heavy chain and light chain set forth in SEQ ID NOs: 24 and 25, respectively) at 13.3 nM, were respectively flowed onto the chip at a flow rate of 10 μL/min. Then, serially diluted recombinant human Siglec15-his protein (in house made, amino acid sequence set forth in SEQ ID NO: 20) or cynomolgus monkey Siglec15-his protein (in house made, amino acid sequence set forth in SEQ ID NO: 21), 2-fold serial dilution in HBS-EP⁺ buffer starting at 80 nM, were respectively flown onto the chip at a flow rate of 30 μL/min. The antigen-antibody association kinetics was followed for 2 minutes and the dissociation kinetics was followed for 10 minutes. The association and dissociation curves were fit to a 1:1 Langmuir binding model using BIAcore evaluation software.
For the BIAcore test measuring the binding affinities of the modified A2A5C7E8 variants to mouse Siglec 15, mouse Siglec15-his protein (in house made with SEQ ID NO: 22) was used.
Work on B1 yielded a Kd of 0.17 nM, a koff of 0.000931 s⁻¹ and a kon of 5.47e+06 M⁻¹ s⁻¹. For B2, the Kd was 0.0875 nM, the koff was 0.000187 s⁻¹ and the kon was 2.14e+06 M⁻¹ s⁻¹. B3 gave a Kd of 0.188 nM, a koff of 0.000495 s⁻¹ and a kon of 2.63e+06 M⁻¹ s⁻¹. In the case of B4, the Kd is reported as 0.0737 nM, the koff is reported as 0.000165 s⁻¹ and the kon is reported as 2.24e+06 M⁻¹ s⁻¹.

Each binder was assayed against T2, recombinant human Siglec15-his protein in the same assay as above.
Experimental: as §1
With B1 the Kd was 0.422 nM, the koff was 0.000955 s⁻¹ and the kon was 2.27e+06 M⁻¹ s⁻¹. B2 gave a Kd of 0.0383 nM, a koff of 7.45e-05 s⁻¹ and a kon of 1.94e+06 M⁻¹ s⁻¹. In the case of B3, the Kd is reported as 0.164 nM, the koff is reported as 0.000273 s⁻¹ and the kon is reported as 1.66e+06 M⁻¹ s⁻¹. With B4 the Kd was 0.0396 nM, the koff was 7.46e-05 s⁻¹ and the kon was 1.88e+06 M⁻¹ s⁻¹.

Molecular target: T3, cynomolgus monkey Siglec15-his protein
Assay: as above
Experimental: as §1
In the case of B1, the Kd is reported as 0.688 nM, the koff is reported as 0.000781 s⁻¹ and the kon is reported as 1.13e+06 M⁻¹ s⁻¹. B2 showed a Kd of 0.0704 nM, a koff of 7.96e-05 s⁻¹ and a kon of 1.13e+06 M⁻¹ s⁻¹. B3 showed a Kd of 0.147 nM, a koff of 0.000167 s⁻¹ and a kon of 1.14e+06 M⁻¹ s⁻¹. In the case of B4, the Kd is reported as 0.0751 nM, the koff is reported as 5.32e-05 s⁻¹ and the kon is reported as 708000 M⁻¹ s⁻¹.

Molecular target: T3, cynomolgus monkey Siglec15-his protein
Assay: indirect ELISA on coated cynomolgus Siglec15-his
Experimental: The anti-Siglec15 antibodies' cross-reactions to cynomolgus or mouse Siglec15 proteins were measured. Briefly, 96-well micro plates were coated with 100 μl of 2 μg/ml cynomolgus Siglec15-his protein (in house made with SEQ ID NO: 21), or 2 μg/ml mouse Siglec15-his protein (in house made with SEQ ID NO: 22) in carbonate/bicarbonate buffer (pH 9.6) for 2 hours at 37° C. ELISA plates were washed once with wash buffer (PBS+0.05% v/v Tween-20, PBST) and then blocked with 200 μl/well blocking buffer (5% w/v non-fatty milk in PBST) overnight at 4° C. Plates were washed 4 times and incubated with 100 μl serially diluted anti-Siglec15 antibodies of the disclosure or controls (starting at 66.7 nM, 5-fold serial dilution in PBST with 2.5% w/v non-fatty milk) for 40 minutes at 37° C. ELISA plates were washed 4 times again and incubated with Peroxidase AffiniPure Goat Anti-Human IgG, F(ab)₂ fragment specific (1:5000 dilution in PBST buffer, Jackson Immunoresearch, Cat #109-035-097, 100 μl/well) for 40 minutes at 37° C. After a final wash, plates were incubated with 100 μl/well TMB (Innoreagents, Cat #TMB-S-002). The reaction was stopped 4 minutes later at room temperature with 50 μl 1M H₂SO₄, and the absorbance of each well was read on a microplate reader using dual wavelength mode with 450 nm for TMB and 630 nm as the reference wavelength, then the OD (450-630) values were plotted against antibody concentration. Data was analyzed using Graphpad Prism software and EC₅₀ values were reported.
B1 gave an EC50 of 0.201 nM. For B5, the EC50 was 0.197 nM. For B6, the EC50 was 0.146 nM. With B7 the EC50 was 0.179 nM.
